# Measured values: paper PMC11722253
# T1: SPbeta integrase-RDF fusion (SprA-SprB) (Bacillus subtilis phage SPbeta, UniProt O32006 1-545+=TSGSGGSGGSGGSGRSGT+O34850:2-58, internal_change)
# T1 sequence: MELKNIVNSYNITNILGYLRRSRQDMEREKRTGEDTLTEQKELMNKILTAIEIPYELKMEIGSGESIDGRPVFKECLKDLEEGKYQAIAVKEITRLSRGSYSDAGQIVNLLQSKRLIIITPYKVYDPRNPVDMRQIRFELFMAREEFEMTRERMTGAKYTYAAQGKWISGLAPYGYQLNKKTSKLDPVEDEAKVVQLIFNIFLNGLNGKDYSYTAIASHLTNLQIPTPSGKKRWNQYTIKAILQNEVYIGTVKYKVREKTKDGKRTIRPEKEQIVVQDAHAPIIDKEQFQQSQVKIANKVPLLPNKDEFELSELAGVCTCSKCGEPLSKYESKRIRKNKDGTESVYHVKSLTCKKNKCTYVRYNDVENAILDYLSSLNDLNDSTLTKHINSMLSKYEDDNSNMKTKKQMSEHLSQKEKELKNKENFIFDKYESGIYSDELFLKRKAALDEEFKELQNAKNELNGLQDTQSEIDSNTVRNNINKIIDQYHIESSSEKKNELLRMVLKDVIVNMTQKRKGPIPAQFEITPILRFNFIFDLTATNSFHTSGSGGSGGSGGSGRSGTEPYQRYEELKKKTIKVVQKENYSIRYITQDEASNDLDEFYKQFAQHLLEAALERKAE
# T2: SPbeta integrase (SprA) (Bacillus subtilis phage SPbeta, UniProt O32006 1-545)
# T2 sequence: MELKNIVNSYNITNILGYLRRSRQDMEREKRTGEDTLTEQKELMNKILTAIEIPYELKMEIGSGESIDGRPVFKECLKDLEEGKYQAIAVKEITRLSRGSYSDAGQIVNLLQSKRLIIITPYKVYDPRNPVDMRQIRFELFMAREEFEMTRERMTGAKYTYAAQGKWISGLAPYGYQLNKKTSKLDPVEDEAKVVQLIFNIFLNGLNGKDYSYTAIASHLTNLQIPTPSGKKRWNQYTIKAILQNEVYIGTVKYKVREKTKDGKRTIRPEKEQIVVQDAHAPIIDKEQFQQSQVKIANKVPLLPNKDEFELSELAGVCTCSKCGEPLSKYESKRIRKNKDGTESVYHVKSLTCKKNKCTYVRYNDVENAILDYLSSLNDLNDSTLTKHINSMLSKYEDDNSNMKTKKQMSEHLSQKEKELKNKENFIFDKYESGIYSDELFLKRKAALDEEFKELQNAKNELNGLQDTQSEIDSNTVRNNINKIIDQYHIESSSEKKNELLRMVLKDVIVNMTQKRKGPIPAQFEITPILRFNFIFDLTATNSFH
# B1: attPmm (dsDNA)
# DNA 1: AAAAAAAAGGTAGTAAGTATCTTAAAAAACAGATTTAGCTGTATATTAAGATACTTACTAC
# DNA 2: GTAGTAAGTATCTTAATATACAGCTTTATCTGTTTTTTAAGATACTTACTACTTTTTTTTT
# Assays:
# [1] = molecular target: T1, SPbeta integrase-RDF fusion (SprA-SprB); test: SEC
# [2] = molecular target: T2, SPbeta integrase (SprA); test: SEC
binder,measurement,setting,value
B1,binding result,[1],binds
same,binding result,[2],binds
